The Kd is a measure of binding affinity in units of concentration.

For experiment [1], the target named is T1, Pext-01 (huANGTPL7-FLAG multimer) (human, UniProt O43827 27-346).
T1 construct: also called PExt-1; human wild type ANGPTL7 multimer; not shown: FLAG tag
T1 sequence: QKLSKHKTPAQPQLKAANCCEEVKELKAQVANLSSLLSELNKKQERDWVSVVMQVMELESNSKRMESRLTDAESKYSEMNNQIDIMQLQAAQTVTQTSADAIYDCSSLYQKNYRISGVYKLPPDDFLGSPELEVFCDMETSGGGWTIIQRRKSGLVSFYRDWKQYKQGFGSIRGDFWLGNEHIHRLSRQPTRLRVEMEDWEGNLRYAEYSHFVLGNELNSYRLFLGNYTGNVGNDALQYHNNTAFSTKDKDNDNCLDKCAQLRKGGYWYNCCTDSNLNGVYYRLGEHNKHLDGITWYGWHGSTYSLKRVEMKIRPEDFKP
The experiment can be described thus: BLI Octet HTX; IgG on AHC sensor; Pext-01 at 100 nM; 1:1 fit; apparent KD. An outline of the steps: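 Antibodies at 50 nM were captured on AHC biosensors for 5 min in PBS pH 7.4 with 0.1 mg/ml BSA, 0.05% sodium azide and 0.02% Tween 20.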

The target in experiment [2] is T2, P63 (huANGTPL7-GGPGG_sub-his) (human, UniProt O43827 27-346).
T2 construct: also called full length human ANGPTL7 monomeric variant L59 GGPGG; not shown: C-terminal short linker and His tag
T2 sequence: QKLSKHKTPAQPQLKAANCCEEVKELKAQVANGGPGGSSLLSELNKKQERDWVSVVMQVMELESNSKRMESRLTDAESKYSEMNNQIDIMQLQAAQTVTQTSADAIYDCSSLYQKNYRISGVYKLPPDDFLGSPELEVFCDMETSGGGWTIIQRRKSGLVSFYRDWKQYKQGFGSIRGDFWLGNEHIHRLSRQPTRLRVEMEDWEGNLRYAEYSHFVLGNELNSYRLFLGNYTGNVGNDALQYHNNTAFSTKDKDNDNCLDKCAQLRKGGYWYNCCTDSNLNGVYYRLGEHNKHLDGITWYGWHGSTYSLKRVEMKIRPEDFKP
Put plainly: BLI Octet HTX; IgG on AHC sensor; P63 at 100 nM. As to the method: Experiments were also conducted to determine the reactivity and dissociation constants (KD) of anti-ANGPTL7 antibodies with the human ANGPTL7 GGPGG_sub-his protein. Binding experiments were performed on Octet HTX (ForteBo) in 1×PBS, pH 7.4, 0.1 mg/mi BSA, 0.05% Sodium Azide, and 0.02% Tween 20. Antibodies at a concentration of 50 nM were loaded on pre-hydrated AHC biosensors for 5 min. The loaded sensors were dipped into monovalent P63 (huANGTPL7-GGPGG_sub-his) at a concentration of 100 nM for 5 min of association, followed by 10 min of dissociation.
For orientation: Biolayer interferometry detects binding as a change in optical thickness at a sensor tip.

In experiment [3] the target is T3, P66 (rabbit ANGPTL7-his) (rabbit, UniProt G1T4P1 27-344).
T3 construct: mature; also called rabbit ANGPTL7 protein
T3 sequence: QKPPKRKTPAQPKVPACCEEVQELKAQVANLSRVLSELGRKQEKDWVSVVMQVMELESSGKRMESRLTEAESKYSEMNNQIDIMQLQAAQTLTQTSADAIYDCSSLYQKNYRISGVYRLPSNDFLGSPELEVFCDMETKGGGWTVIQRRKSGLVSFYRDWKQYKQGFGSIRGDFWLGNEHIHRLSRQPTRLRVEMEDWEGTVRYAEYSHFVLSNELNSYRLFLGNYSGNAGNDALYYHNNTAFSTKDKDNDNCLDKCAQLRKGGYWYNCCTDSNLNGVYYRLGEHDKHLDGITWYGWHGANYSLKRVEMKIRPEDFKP
Put plainly: BLI Octet HTX; IgG on AHC sensor; P66 at 200 nM; 1:1 fit. An outline of the steps: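 Biolayer interferometry in PBS pH 7.4 with 0.1 mg/ml BSA, 0.05% sodium azide, 0.02% Tween 20; antibodies at 50 nM loaded on AHC sensors for 5 min. Monovalent analyte at 200 nM: 5 min association, 10 min dissociation; end-of-association response (nm) recorded, kinetics by 1:1 fit.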

For experiment [4], the target named is T4, P60 (huANGPTL7-Fibrinogen-his) (human, UniProt O43827 129-343).
T4 construct: also called human ANGPTL7 fibrinogen domain; not shown: C-terminal short linker and His tag
T4 sequence: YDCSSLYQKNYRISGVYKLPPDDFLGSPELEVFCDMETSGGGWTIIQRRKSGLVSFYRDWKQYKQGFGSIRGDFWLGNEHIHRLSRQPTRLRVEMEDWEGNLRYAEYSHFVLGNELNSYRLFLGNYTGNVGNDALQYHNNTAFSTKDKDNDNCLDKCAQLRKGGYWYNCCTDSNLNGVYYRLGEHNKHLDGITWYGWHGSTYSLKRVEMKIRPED
The experiment can be described thus: BLI Octet HTX; IgG on AHC sensor; P60 at 200 nM. As for the experimental part: ANGPTL7 Antibody Kinetics. Experiments were conducted to determine the reactivity and dissociation constants (KD) of anti-ANGPTL7 antibodies with the human fibrinogen domain of the ANGPTL7 protein. Binding experiments were performed on Octet HTX (ForteBio) in 1×PBS, pH 7.4, 0.1 mg/ml BSA, 0.05% Sodium Azide, and 0.02 Tween 20. Antibodies at a concentration of 50 nM were loaded on pre-hydrated AHC biosensors for 5 min. The loaded sensors were dipped into monovalent P60 (huANGPTL7-Fibrinogen-his) at a concentration of 200 nM for 5 min association, followed by 10 min dissociation. […] Responses (nm) at the end of association were also determined (Table 2).

Experiment [5] has as its target T4, P60 (huANGPTL7-Fibrinogen-his). Put plainly: BLI Octet HTX; IgG on AHC sensor; P60 at 200 nM; 1:1 fit. The gist of the method: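 Anti-ANGPTL7 IgG at 50 nM loaded 5 min on AHC biosensors, then dipped in monovalent P60 at 200 nM: 5 min association, 10 min dissociation.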

B1: ATX-P-449 (antibody, human IgG1, kappa, N297A, V domains shown)
VH: QVQLVESGGGVVQPGRSLRLSCAASGFAFSSYGMHWVRQAPGKGLEWVAVISYYGSNKYYADSVKGRFTISRDNSKNTLYLQMNSLRAEDTAVYHCARGITMDVWGKGTTVTVSS
VL: EIVLTQSPATLSLSPGERATLSCRASQSVSSYLAWYQQKPGQAPRLLIYDASNRATGIPARFSGSGSGTDFTLTISSLEPEDFAVYYCQQRSNWPLTFGGGTKVEIKR
notes: Full chains (VH + hIgG1-Agly-Fc)
Regarding B1, the values for the Response in experiment [1], in experiment [3] and in experiment [5] were 0.65 nm, 0.74 nm and 0.08 nm, respectively. Also, the figures for the binding result in experiment [2] and in experiment [4] were “no binding (tested: 100 nM)” and “no binding (tested: 200 nM)”, respectively. Also, the Kd in experiment [3] was 0.626 nM.

B2: ATX-P-443 (antibody, human IgG1, kappa, N297A, V domains shown)
VH: QVQLVQSGAEVKKPGASVKVSCKASGYTFTSYGISWVRQAPGQGLEWMGWIIAYNGNTNYAQKLQGRITMTTNTSTNTAYMELRSLRSDDTAVYYCGRDTGFSFDYWGQGTLVTVSS
VL: not shown
notes: as for B1
For B2, the results for the Response in experiment [1], in experiment [3] and in experiment [5] were 0.03 nm, 0.03 nm and 0.01 nm, respectively. The values for the binding result in experiment [2] and in experiment [4] were “no binding (tested: 100 nM)” and “no binding (tested: 200 nM)”, respectively.

B3: ATX-P-428 (antibody, human IgG1, kappa, N297A, V domains shown)
VH: QVQLVQSGAEVKKPGASVKVSCKASGYTFSSYGISWVRQAPGQGLEWMGWISAYNGNTNYAQNLRGRVAMTTDTSTTTAYMELRSLRSDDTAVYYCARVSLVWFGELPRGFDYWGQGTLVTVSS
VL: not shown
notes: as for B1
For B3, the Response in experiment [1] amounted to 0.05 nm; in experiment [3], 0.04 nm; in experiment [5], 0.02 nm. In addition, the figures for the binding result in experiment [2] and in experiment [4] were “no binding (tested: 100 nM)” and “no binding (tested: 200 nM)”, respectively.

The values are drawn from patent US20250296996A1 (BROADWING BIO, published 2025).
